Legend:
[1] = target: human α1β1 integrin (immobilized) (human, UniProt P56199 29-1179; P05556 21-798, limits assumed); assay: ELISA on immobilized human α1β1
Method: Human α1β1 integrin (Chemicon International) was diluted in Coating Buffer (25 mM Tris, pH 7.5, 150 mM NaCl, 1 mM MgCl₂) to a final concentration of 0.5 μg/ml. 96-well immunoplates were coated with α1β1 at 50 ng/well and incubated overnight at 4° C. The plates were washed three times with Wash Buffer (50 mM Tris, pH 7.5, 150 mM NaCl, 2 mM MgCl₂, 0.5% Tween-20) and blocked with 5% w/v/skim milk in Wash Buffer for one hour at room temperature. […] Fifty microliters/well of the diluted antibody solutions were added to the α1β1-coated plates, incubated for one hour at room temperature, and then washed three times. […] After a one-hour incubation at room temperature, the plates were washed three times, incubated in substrate solution (1 mg/ml 4-nitrophenyl phosphate, 0.1 M diethanolamine, 5 mM MgCl₂, pH 9.8) for 20 minutes, and terminated with NaOH. The absorbance (405 nm) was read using a Spectramax Plus plate reader using Softmax Pro software. […] The control anti-α1β1 antibody (FB-12) bound to α1β1 with an EC₅₀ of 0.79±0.15 nM.

[2] = target: T1, GST-human α2 I domain fusion protein (human, UniProt P17301 153-368); assay: SPR (Biacore 2000), antibody captured, GST-α2 I domain in solution; second Human row; second Human row of humanized TMC-2206
T1 construct: the reverse primer ends at ...SIEGTV; also called GST-α2 I domain; hα2I; not shown: glutathione S-transferase tag encoded by vector pGEX-2TK
T1 sequence: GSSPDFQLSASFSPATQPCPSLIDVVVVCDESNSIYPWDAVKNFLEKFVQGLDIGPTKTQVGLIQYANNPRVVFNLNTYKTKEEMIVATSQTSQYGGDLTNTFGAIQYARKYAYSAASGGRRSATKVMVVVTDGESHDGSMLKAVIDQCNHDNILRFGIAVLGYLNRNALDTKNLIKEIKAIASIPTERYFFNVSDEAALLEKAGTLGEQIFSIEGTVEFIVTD
Description: SPR, a method for characterizing macromolecular interactions, is an optical technique that uses the […] phenomenon to exquisitely measure minute changes in refractive index very close to a sensor surface. The binding between an antigen in solution (e.g., fusion protein) and its MAb receptor (immobilized on the surface of a sensor chip) results in a change in refractive index. The interaction is monitored in real time and the amount of bound antigen and the association and dissociation rate constants can be measured with high precision. The equilibrium dissociation constant can be easily calculated from: KD=kd/kₐ=koff/kₒₙ. The cloning of the human α2 I domain and the purification of the expressed GST-human α2 I domain fusion protein was described in Example 12. Analyses were performed at 20° C. using a Biacore 2000 optical sensor with a research-grade CM5 sensor chip (Biacore Life Sciences, Uppsala, Sweden) and equilibrated with running buffer (50 mM HEPES, 150 mM NaCl, 0.25 mM MgCl₂, 0.25 mM CaCl₂, 0.5% Tween-20, 0.1 mg/ml BSA, pH 7.4). […] Each cycle of antigen (GST-human-α2 I domain fusion protein) binding to surface-tethered anti-mouse IgGs involved three steps. […] [The other two surfaces (one anti-mouse and one Protein A) served as analytic references.] In the second step, GST-human-α2 I domain fusion protein was injected across the four surfaces. Responses obtained from the reference surfaces (due to refractive index mismatches between the antigen and running buffer) were subtracted from the responses obtained from the reaction surfaces. In the third step, the antigen/antibody complexes were stripped from the surfaces such that the surfaces could be used for another binding cycle.

[3] = target: T2, human platelet α2β1 integrin (immobilized on microtiter plates) (human, UniProt P17301 30-1181; P05556 21-798); assay: equilibrium binding of Eu-TMC-2206 to human platelet α2β1-coated plate, Scatchard
T2 construct: plates custom-coated with human platelet α2β1 by GTI Inc; also called immobilized α2β1 integrin; α2β1-coated plates
T2 sequence (P17301 30-1181 E534K limits assumed, chain 1 of 2): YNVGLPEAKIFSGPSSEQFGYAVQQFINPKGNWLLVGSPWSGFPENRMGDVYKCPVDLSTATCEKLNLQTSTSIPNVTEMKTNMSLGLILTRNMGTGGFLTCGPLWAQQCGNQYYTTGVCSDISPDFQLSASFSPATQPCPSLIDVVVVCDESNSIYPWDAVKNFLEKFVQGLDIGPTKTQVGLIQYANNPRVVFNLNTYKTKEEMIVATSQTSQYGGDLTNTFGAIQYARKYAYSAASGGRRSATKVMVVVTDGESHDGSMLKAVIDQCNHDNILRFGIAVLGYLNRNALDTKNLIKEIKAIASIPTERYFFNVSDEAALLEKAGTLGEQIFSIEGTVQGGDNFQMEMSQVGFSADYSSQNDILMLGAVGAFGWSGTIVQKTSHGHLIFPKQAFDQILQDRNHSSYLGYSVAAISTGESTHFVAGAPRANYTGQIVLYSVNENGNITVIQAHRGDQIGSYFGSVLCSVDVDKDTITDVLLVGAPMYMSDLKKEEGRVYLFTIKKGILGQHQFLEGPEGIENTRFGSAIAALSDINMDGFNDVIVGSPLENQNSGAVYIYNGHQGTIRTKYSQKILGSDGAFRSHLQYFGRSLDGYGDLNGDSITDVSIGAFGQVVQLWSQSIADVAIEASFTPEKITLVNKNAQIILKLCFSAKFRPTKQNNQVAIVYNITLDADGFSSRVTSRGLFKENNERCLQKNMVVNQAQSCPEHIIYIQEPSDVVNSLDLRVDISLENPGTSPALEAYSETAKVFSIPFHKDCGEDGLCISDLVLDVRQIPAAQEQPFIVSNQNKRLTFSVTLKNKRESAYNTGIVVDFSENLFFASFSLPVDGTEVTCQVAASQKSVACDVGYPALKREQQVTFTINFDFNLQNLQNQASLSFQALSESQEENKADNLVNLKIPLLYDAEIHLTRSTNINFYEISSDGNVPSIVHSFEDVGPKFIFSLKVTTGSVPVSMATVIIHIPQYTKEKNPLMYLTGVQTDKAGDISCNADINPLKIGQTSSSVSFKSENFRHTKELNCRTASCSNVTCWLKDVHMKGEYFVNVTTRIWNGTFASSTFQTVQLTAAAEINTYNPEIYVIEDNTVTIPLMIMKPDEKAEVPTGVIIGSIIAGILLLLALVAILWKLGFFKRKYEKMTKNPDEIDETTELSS
T2 sequence (P05556 21-798 limits assumed, chain 2 of 2): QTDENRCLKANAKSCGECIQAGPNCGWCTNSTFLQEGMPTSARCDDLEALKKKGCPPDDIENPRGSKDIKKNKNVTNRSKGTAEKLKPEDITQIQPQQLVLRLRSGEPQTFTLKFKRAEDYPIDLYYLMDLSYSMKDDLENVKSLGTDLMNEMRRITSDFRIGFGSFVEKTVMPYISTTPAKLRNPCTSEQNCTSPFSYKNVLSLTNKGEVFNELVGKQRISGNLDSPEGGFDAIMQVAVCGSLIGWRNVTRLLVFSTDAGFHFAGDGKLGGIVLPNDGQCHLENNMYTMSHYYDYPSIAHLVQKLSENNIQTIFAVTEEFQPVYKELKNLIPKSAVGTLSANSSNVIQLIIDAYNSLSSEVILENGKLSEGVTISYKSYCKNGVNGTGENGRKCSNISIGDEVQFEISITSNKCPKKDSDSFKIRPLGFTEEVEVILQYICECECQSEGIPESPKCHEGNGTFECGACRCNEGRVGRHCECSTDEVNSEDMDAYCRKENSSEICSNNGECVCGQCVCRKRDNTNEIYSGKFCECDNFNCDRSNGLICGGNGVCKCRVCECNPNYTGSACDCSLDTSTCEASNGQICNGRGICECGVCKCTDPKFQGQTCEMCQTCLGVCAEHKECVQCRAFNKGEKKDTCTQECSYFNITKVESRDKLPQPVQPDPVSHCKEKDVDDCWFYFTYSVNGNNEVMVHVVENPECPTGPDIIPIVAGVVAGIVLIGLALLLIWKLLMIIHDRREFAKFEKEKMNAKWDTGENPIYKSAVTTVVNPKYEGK
Method: Wells in a 96 well microtiter plate were coated with platelet α2β1-integrin (custom-coated with human platelet α2β1 by GTI Inc., Wis.) and then blocked with nonfat milk. […] After concentration in prewashed MicroSep concentrators (30-kDa cutoff; Pall Life Sciences at 9500 rpm (7000×g) in a JA-20 rotor (Beckman Instruments, Inc.) for 20 minutes at 4° C.), antibodies were adjusted to 4.0 mg/mL with PBS containing a final concentration of 100 mM NaHCO₃, pH 9.3. The mAb/bicarbonate mixture (0.250 mL) was gently mixed into a vial containing 0.2 mg N¹-(p-isothiocyanatobenzyl)-diethylenetriamine-N¹,N²,N³N³-tetraacetic acid chelated with Eu³⁺ (Eu-N1-ITC; Perkin Elmer Life Sciences) and reacted overnight at 4° C. without stirring. Each labeled antibody mixture was applied to a separate PD-10 column (GE Biosciences, Piscataway, N.J.) pre-equilibrated with Running Buffer (50 mM Tris, pH 7.4 and 138 mM NaCl). Fractions (0.5 mL) were collected and assayed for total protein (Bradford reagent; Bio-Rad Laboratories, Hercules, Calif.) using a SpectraMax 384 absorbance plate reader and for europium after 1:10.000 dilution in DELFIA Enhancement Solution (Perkin-Elmer) by time-resolved fluorescence (TRF) using a Victor2 multi-label plate reader (Perkin Elmer). […]

[4] = target: human α2β1 integrin on human cells (platelets, leukocytes, HT1080) (human, UniProt P17301 30-1181; P05556 21-798); assay: cell-based or functional assay
Sequence of human α2β1 integrin on human cells (platelets, leukocytes, HT1080) (P17301 30-1181 E534K limits assumed, chain 1 of 2): as the sequence (P17301 30-1181 E534K limits assumed, chain 1 of 2) above
Sequence of human α2β1 integrin on human cells (platelets, leukocytes, HT1080) (P05556 21-798 limits assumed, chain 2 of 2): as the sequence (P05556 21-798 limits assumed, chain 2 of 2) above

[5] = target: T3, BSA (UniProt P02769 25-607); assay: Eu-labelled antibody on BSA-coated control wells
T3 construct: also called BSA coated control wells
T3 sequence (P02769 25-607 limits assumed): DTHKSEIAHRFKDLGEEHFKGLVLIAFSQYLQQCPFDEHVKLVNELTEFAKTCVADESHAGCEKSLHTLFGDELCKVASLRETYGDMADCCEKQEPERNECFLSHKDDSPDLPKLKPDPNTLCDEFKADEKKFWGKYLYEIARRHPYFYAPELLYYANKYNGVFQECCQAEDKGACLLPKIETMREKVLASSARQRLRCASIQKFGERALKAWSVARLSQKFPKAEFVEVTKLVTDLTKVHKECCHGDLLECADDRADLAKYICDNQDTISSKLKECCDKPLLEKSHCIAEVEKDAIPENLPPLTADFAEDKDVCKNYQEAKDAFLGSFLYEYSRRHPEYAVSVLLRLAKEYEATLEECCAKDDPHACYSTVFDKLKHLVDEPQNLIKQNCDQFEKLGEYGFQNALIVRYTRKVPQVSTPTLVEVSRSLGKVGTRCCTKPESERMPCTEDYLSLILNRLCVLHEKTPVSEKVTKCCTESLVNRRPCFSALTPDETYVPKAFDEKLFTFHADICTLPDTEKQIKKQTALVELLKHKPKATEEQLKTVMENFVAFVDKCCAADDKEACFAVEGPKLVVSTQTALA

[6] = target: T2, human platelet α2β1 integrin …; assay: competition with Eu-TMC-2206 on platelet α2β1-coated plates

Sequence of human α1β1 integrin (immobilized) (P56199 29-1179 limits assumed, chain 1 of 2): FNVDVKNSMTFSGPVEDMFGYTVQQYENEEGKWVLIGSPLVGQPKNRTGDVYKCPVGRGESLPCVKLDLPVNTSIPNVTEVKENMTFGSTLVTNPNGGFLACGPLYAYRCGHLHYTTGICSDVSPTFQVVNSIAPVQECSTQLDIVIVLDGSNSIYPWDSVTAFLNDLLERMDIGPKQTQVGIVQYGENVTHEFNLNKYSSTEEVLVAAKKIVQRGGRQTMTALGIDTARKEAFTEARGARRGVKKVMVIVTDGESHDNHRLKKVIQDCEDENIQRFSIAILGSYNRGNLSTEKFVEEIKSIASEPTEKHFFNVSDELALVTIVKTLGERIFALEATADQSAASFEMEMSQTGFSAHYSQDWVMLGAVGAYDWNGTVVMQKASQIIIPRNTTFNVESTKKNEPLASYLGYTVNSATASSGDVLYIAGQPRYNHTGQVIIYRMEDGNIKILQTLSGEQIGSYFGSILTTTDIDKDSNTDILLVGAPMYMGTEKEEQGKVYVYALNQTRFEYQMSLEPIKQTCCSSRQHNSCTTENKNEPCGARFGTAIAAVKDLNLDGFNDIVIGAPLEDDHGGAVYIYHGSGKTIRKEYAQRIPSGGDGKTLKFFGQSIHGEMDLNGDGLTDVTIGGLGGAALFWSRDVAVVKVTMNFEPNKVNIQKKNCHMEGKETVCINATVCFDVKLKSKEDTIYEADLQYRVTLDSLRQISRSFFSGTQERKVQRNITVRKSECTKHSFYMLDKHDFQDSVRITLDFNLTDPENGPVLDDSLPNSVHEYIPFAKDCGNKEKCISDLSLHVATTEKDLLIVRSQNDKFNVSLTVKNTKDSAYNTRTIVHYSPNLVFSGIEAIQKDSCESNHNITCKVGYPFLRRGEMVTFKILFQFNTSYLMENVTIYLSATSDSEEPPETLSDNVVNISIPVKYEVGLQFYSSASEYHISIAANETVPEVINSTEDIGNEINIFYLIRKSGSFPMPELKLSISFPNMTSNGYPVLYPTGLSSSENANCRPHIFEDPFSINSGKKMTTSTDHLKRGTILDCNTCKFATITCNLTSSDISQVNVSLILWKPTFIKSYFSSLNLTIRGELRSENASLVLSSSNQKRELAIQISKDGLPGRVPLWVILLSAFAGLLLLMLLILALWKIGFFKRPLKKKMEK
Sequence of human α1β1 integrin (immobilized) (P05556 21-798 limits assumed, chain 2 of 2): as the sequence (P05556 21-798 limits assumed, chain 2 of 2) above

Binder	binding result [1]	Kd [2]	koff [2]	kon [2]	Kd [3]	EC50 (nM), human platelet adhesion to human collagen Type I, ADP 0 µM [4]	EC50 (nM), human platelet adhesion to human collagen Type I, ADP 20 µM [4]	EC50 (nM), human platelet adhesion to human collagen Type II, ADP 0 µM [4]	EC50 (nM), human platelet adhesion to human collagen Type II, ADP 20 µM [4]	EC50 (nM), human platelet adhesion to human collagen Type III, ADP 0 µM [4]	EC50 (nM), human platelet adhesion to human collagen Type III, ADP 20 µM [4]	EC50 (nM), human platelet adhesion to human collagen Type IV, ADP 0 µM [4]	EC50 (nM), human platelet adhesion to human collagen Type IV, ADP 20 µM [4]	EC50 (nM), human platelet adhesion to human collagen Type VI, ADP 0 µM [4]	EC50 (nM), human platelet adhesion to human collagen Type VI, ADP 20 µM [4]	binding result [5]	Ki [6]
Humanized TMC-2206 (hIgG4/κ VH12.0/VL10.0Q) (antibody, labelled with Eu or Alexa-488 in some assays) heavy: not shown light: DFVMTQSPAFLSVTPGEKVTITCSAQSSVNYIHWYQQKPDQAPKKLIYDTSKLASGVPSRFSGSGSGTDYTFTISSLEAEDAATYYCQQWTTNPLTFGQGTKVEIKRTVAAPSVFIFPPSDEQLKSGTASVVCLLNNFYPREAKVQWKVDNALQSGNSQESVTEQDSKDSTYSLSSTLTLSKADYEKHKVYACEVTHQGLSSPVTKSFNRGEC	no binding	4 nM	0.0024 s⁻¹	580000 M⁻¹ s⁻¹	–	–	–	–	–	–	–	–	–	–	–	–	–
TMC-2206 (antibody, mouse IgG1, V domains shown, murine IgG1/κ secreted by hybridoma BHA2.1; labelled with Eu-N1-ITC where used as tracer; also called BHA2.1) VH: QVQLKESGPGLVAPSQSLSITCTVSGFSLTNYGIHWVRQPPGKGLEWLGVIWARGFTNYNSALMSRLIITKDNSQSQVFLKMNSLQPDDSATYFCARANDGVYYAMDYWGQGTSVTVSS VL: QFVLTQSPAFLSASPGEKVTMTCSANSSVNYIHWYQQKSGTSPKKWIYDTSKLASGVPVRFSGSGSGTSYSLTISSMETEDAATYYCQQWTTNPLTFGAGTRVELK	–	–	–	–	0.374 nM	1.7 nM	9.5 nM	1.9 nM	27 nM	1.6 nM	11 nM	10 nM	> 1000 nM	2.3 nM	23 nM	no binding	0.11 nM

From patent US20070128190A1 (GLENMARK PHARMACEUTICALS S A, published 2007)
